Laboratory results reported in patent US20250026813A1 (published 2025).
Numbering of substitutions follows the chain as printed.

B1: YANG-2303 (antibody, V domains shown)
VH: QVQLVQSGAEVKKPGASVRVSCKVSGYTLPELAIHWVRQAPGKGLEWMGGFDPEDGETIYAQKFQGRVIMTEDTSTDTAYMDLSSLRSEDTAVYYCVKTWAAPGYNYGLDTWGQGTTVTVSS
VL: EIVLTQSPGILSLSPGESATLSCRASQSIASNYLAWFQQKPGQAPRLLIYGASSRAAGFPDRFSGSGSGTDFTLTIKRLEPEDSAVYYCQHYGSSPCSFGQGTNLEIK
B2: YANG-2301 (antibody, V domains shown)
VH: QVHLIQSGAEVKKPGASVKVSCKVSGYTLIEVSVHWVRQAPGKGLEWMGGFDPEAAETIYAQKFQGRVTMTEDTSTDTAYMDLSSLKSEDSAVYYCAIGPAVTGRNSGEYYYYYGMDVWGQGTTVTVAS
VL: EIVMTQSPATLSVSPGERATLSCRASQSVNSNLAWYQQKPGQAPRLLIYAVSTRATGLPARFSGSGSGTEFTLTISSLQSEDFVVYYCHQYNNWPLTFGGGTKVEIK
B3: YANG-2302 (antibody, V domains shown)
VH: QVQLVQSGAEVRKPGASVKVSCKVSGYTLPELAIHWVRQAPGKGLEWMGGFIPEDGDTIYAQKFQGRVTMTEDTSTDTAYMDLTSLRSEDAAVYYCTSGWAAPGYNYGMAVWGQGTTVTVSS
VL: EVVLTQSPGTLSLSSGERATLSCRASQSVSSNYLAWYQKKPGQAPRLLIYGASSRVTGIPDRFGGSGSGTDFTLTISRLEPEDFAVYYCQQYDASPYSFGQGTKLDIK
B4: YANG-2304 (antibody, V domains shown)
VH: QVQLVQSGTEVKKPGASVKVSCKVSGYTLPELAIHWVRQAPGKGLEWMGTFDPEDGETICAQKFQGRVTMTEDTSTDTAYMDLSSLRSEDTAVYYCATTSIIAARWWFDPWGQGTLVTVSS
VL: QSALTQPPSASGSPGQSVTISCTGTSSDVGGYDYVSWYQQHPGKAPKLMIYEVSKRPSGVPDRFSGSKSGNTASLTVSGLQAEDEADYYCSSFAGSNNVVFGGGAKLTVL
B5: IMPI-056 (antibody, V domains shown)
VH: EVQLVESGGGLIQPGGSLRLSCAASGLTVSSNYMNWVRQAPGKKLEWVSVIYSGGSTFYADSVRGRFTISRDNSKNTLFLQMNSLRAEDSAVYYCARDLGPYGVDVWGQGTTVTVSS
VL: DIQLTQSPSFLSASVGDRVTITCWASQGISSYLAWYQQKPGKAPKLLIYAASTLQSGVPSRFSGSGSGTEFTLTISSLQPEDFATYYCQQLNSYPLTFGQGTRLEIK
B6: IMPI-052 (antibody, V domains shown)
VH: EVQLVESGGGLIQPGGSLRLSCAASGVTVSSNYMNWVRQAPGKGLEGVSVIYSGGTTYYADSVKGRFTISRDNSKNTLYLQMNSLRAEDTAVYYCARDTVVYGMDVWGQGTTVTVSS
VL: B5 VL with A50T, Q100G, R103K, L104V
B7: IMPI-013 (antibody, V domains shown)
VH: EVQLVESGGGLVQPGRSLRLSCAASGFTFDDYAMHWVRQTPGKGLEWVSGISWNSGSIGYADSVKGRFTISRDNAKNSLYLQMNSLRAEDTALYYCTKDLGLGIGFYYGLDVWGQGTTVTVSS
VL: AIQMTQSPSSLSTSVGDRVTITCRASQGIRNDLGWYQLKPGKAPKLLIYDASTLQSGVPSRFSGSGSGTDFTLTISSLEPEDLATYYCLHHYTYPWTFGHGTKVELK
B8: IMPI-028 (antibody, V domains shown)
VH: EVQLVESGGGLIQPGGSLRLSCAASGFTVSSNYMSWVRQAPGKGLEWVSVIYSGGSTYYADSVKGRFTISRDNSKNTLYLQMNSLRAEDTAVYYCARDYGDLYFDYWGQGTLVTVSS
VL: EIVLTQSPGTLSLSPGERATLSCRASQSISSYLAWYQQKPGQAPRLLIYGASSRATGIPDKFSGSGSGTDFTLTISRLEPEDFAVYYCQQYGSSPRTFGQGTKVEIK
B9: YANG-2205 (antibody, V domains shown)
VH: QIQLVQSGAEVKKPGASVKFSCKTSGYTFTSYYMVWVRQAPGQGLEWMGIIKPSGGNTIYAQKFQGRVTMTRDTSTNTVYMDLSSLRSEDTAVYYCARTGDRAFDVWGHGTMITVSS
VL: QSVLTQPPSVSAAPGQKVTISCSGSSSNIGNNFVSWYQQFPGTAPKLLIYDNNKRPSGIPDRFSGSKSGTSATLGITGLQTGDEADYYCGTWDSSLGAGVFGGGTKLTVL
B10: YANG-2208 (antibody, V domains shown)
VH: B9 VH with K12R, K19R, T28I, S31N, S84N, S85N, Y95F, H109Q, I113V
VL: B9 VL with V10M, S25N, Q38R, G97S
B11: YANG-2207 (antibody, V domains shown)
VH: B9 VH with I2M, F20I, S31N, M81L, D101N, I113V
VL: B9 VL
B12: YANG-2206 (antibody, V domains shown)
VH: B9 VH with F20L, Y60F, S84N, I113V
VL: B9 VL with F33Y, L107V
B13: IMPI-068 (antibody, V domains shown)
VH: QVQLVESGGDVVQPGRSLRLSCAASGFTFSRYGMHWVRQAPGKGLEWVAVISYDGSDKYYADSVKGRFTISRDNSKNTLYLQMNSLRAEDTAVYYCAKQLPLYYYYYGMDVWGQGTTVTVSS
VL: AIQLTQSPSSLSASVGDRVTITCRASQGISSALAWYQQKPGKAPNLLIYDASSLESGVPSRFSGSGSGTDFTLTISSLQPEDFATYYCQQFNIYPHTFGPGTKVDIK
B14: IMPI-004 (antibody, V domains shown)
VH: QVQLVESGGGVVQPGRSLRLSCAASGFTFSSYGMHWVRQAPGKGLEWVAVIWYDGGNKYYADSVKGRFTISRDNSKNTLYLQMNSLRAEDTAVYYCARVNVLMGYGMDVWGQGTTVTVSS
VL: EIVLTQSPGTLSLSPGDKATLSCRASQSIISSFLAWYQQKPGQAPRLLIYGASSRATGIPDRFSGSGSGTDFTLTISRLEPEDFAVYYCQQYGSSLTFGGGTKVEIK
B15: IMPI-067 (antibody, V domains shown)
VH: QVQLVESGGGVVQPGTSLRLSCAASGFTFNSFGMHWVRQAPGKGLEWVAVISYDGSSKYYADSVKGRFTISRDNSKNTLYLQMNSLRAEDTAVYYCAKDEGDYDDYYYGMDVWGQGTTVTVSS
VL: EIVLTQSPGSLSLSPGERATLSCRASQSLSSRYLAWYHQKPGQAPRLLIYGASSRATGIPDRFSGSGSGTDFTLTISGLEPEDFAVYYCQQYGNSITFGGGTKVEIK
B16: IMPI-038 (antibody, V domains shown)
VH: B15 VH with T16R, N30S, F32Y, S57D, D99T, E100V, G101A, D102G, D104Y, D105Y
VL: DIQMTQSPSSVSASVGDRVTVTCRASQDISSWLAWFQQKPGKAPKFLIYDASNLENGVPSRFSGSGSGTDFTLTISSLQPEDFATYYCQQAKSFPWTFGQGTKVEIN

Key:
[1] = molecular target: SARS-CoV-2 spike protein bearing furin mutation and truncation in retention sequence, presented in t (SARS-CoV-2, UniProt P0DTC2 14-1273); assay: cell-based or functional assay
[2] = molecular target: full-length stabilised spike trimer protein of SARS-CoV-2 virus (in-house, soluble ECD with trimeris (SARS-CoV-2, UniProt P0DTC2 14-1208; P10104 458-484)

Binder	PV neutralisation IC50 [1] [nM]	PV neutralization % (Ab 1 ug/mL) [1] [%]	HTRF deltaF [2] [deltaF]
B1	0.48	58.6	–
B2	0.53	56.4	–
B3	0.61	52.2	–
B4	0.74	52.8	–
B5	–	–	1630
B6	–	–	1130
B7	–	–	1420
B8	–	–	480
B9	3.35	47.5	–
B10	4.68	38.2	–
B11	2.59	57.8	–
B12	3.96	42	–
B13	–	–	1600
B14	–	–	952
B15	–	–	963
B16	–	–	1310
